Where “and” joins values, the source holds several entries; their conditions need not be identical. Equal entries are not always repeated.
What was measured:
[1] = substrate: O=C(O)C1=N[C@H](C(=O)O)CCC1; experiment: Quantitative forward and reverse assays of purified LL-DAP transaminases (Example III); type: biochemical, Bacteroides fragilis NCTC9343; settings: other: forward assay
Text: (§1) All orfs were processed identically for expression in E. coli. The orfs were amplified by PCR using the indicated primers. The resulting DNA fragment was digested with BamHI and SalI and cloned into pET30b. The pET30b clone was sequenced. This plasmid was transformed into E. coli BL21-CodonPlus®-RIPL for expression and purification of the recombinant protein. For functional complementation experiments, the expression cassette was subcloned from pET30b into pBAD33 (Guzman et al., 1995) using XbaI and SalI. Using these enzymes the expression cassette included the entire orf, the His-Tag coding sequence and the ribosome binding site from pET30b. pBAD33 provided an arabinose-regulated promoter.
(§2) For protein expression the E. coli strains were grown on LB at 37° C. to an OD600 nm of 0.5 and protein expression was then induced with 1 mM IPTG for 4 hr at 25° C. Cells were lysed by sonication in a solution of 50 mM sodium phosphate and 300 mM NaCl (pH 8.0). Metabolites in the extract were removed by buffer exchange using an Amicon Ultra 30,000 MWCO ultrafilter and sodium phosphate/NaCl buffer, and the concentrated soluble protein sample was used for measurement of enzyme activity as an initial assessment of enzyme function. When the recombinant protein was to be purified a larger cell culture was grown and lysed as described above, but the buffer exchange step was not carried out. […] The pure protein was then concentrated in an Amicon Ultra 30,000 MWCO ultrafilter, replacing the elution buffer with 100 mM HepesKOH, pH 7.6.
(§3) Enzyme assays were performed as described above in Examples I and II.
(§4) The catalytic properties of sll0480, BF2643, Dhaf—3980, MTH52, and SfumDRAFT0821 were studied in greater detail using purified enzymes to determine their kinetic constants using quantitative forward and reverse assays.

[2] = substrate: N[C@@H](CCC(=O)O)C(=O)O; experiment: as above; type: biochemical, Bacteroides fragilis NCTC9343; settings: other: forward assay
Text: as §1, §2, §3, §4

[3] = substrate: N[C@@H](CCC[C@H](N)C(=O)O)C(=O)O; experiment: as above; type: biochemical, Bacteroides fragilis NCTC9343; settings: other: reverse assay
Text: as §1, §2, §3, §4

[4] = substrate: O=C(O)CCC(=O)C(=O)O; experiment: purified protein, by the assay type; settings: other: reverse assay
[5] = substrate: O=C(O)C1=N[C@H](C(=O)O)CCC1; experiment: purified protein, by the assay type; settings: other: forward assay
[6] = substrate: N[C@@H](CCC(=O)O)C(=O)O; experiment: purified protein, by the assay type; settings: other: forward assay
[7] = substrate: N[C@@H](CCC[C@H](N)C(=O)O)C(=O)O; experiment: purified protein, by the assay type; settings: other: reverse assay
[8] = substrate: O=C(O)C1=N[C@H](C(=O)O)CCC1; experiment: Quantitative forward and reverse assays of purified LL-DAP transaminases (Example III); type: biochemical, Syntrophobacter fumaroxidans MPOB; settings: other: forward assay
[9] = substrate: N[C@@H](CCC(=O)O)C(=O)O; experiment: as above; type: biochemical, Syntrophobacter fumaroxidans MPOB; settings: other: forward assay
[10] = coupled with 2-OG dehydrogenase, pH 7.5, apparent Km, pH 7.5, 30.0 °C
[11] = Ddh-coupled, pH 7.5, 30° C., apparent Km, pH 7.5, 30.0 °C

B1: Bacteroides fragilis LL-DAP transaminase Bf2643 (Bacteroides fragilis YCH46) (protein)
chain: MALVNEHFLKLPGSYLFSDIAKKVNTFKITHPKRDIIRLGIGDVTRPLPKACIEAMHKAVEEMTSAETFRGYGPEQGYDFLIEAIIKNDYAPRGIHLSPTEVFVNDGAKSDTGNIGDILRHDNSVGVTDPIYPVYIDSNVMCGRAGVLDTESGKWSNVTYMPCTAENHFIPAIPEKRIDIVYLCYPNNPTGTTLTKAELKKWVDYALANDTLILFDAAYEAYIREPDIPHSIYEIKGAKKCAIEFRSFSKTAGFTGVRCGYTVVPKELTAATLEGERIPLNRLWNRRQCTKFNGTSYITQRAAEAIYTPEGKEQIQETINYYMTNARIMKEGLESTGLKVYGGVNAPYLWVKTPNGTSSWRFFDQMLYEANVVGTPGVGFGPSGEGYIRLTAFGERDDCIEAMRRIKNRL
[1]
  Km: 0.096 mM
[2]
  Km: 1.3 mM
[3]
  Km: 0.01 mM
[4]
  Km: 1.2 mM

B2: Arabidopsis thaliana LL-DAP-AT (At4g33680), wild type, recombinant (lacks first 39 amino acids, hexa-His and S-TAG), SEQ ID NO: 7 (Arabidopsis thaliana) (protein)
chain: VNTCKCVATPQEKIEYKTKVSRNSNMSKLQAGYLFPEIARRRSAHLLKYPDAQVISLGIGDTTEPIPEVITSAMAKKAHELSTIEGYSGYGAEQGAKPLRAAIAKTFYGGLGIGDDDVFVSDGAKCDISRLQVMFGSNVTIAVQDPSYPAYVDSSVIMGQTGQFNTDVQKYGNIEYMRCTPENGFFPDLSTVGRTDIIFFCSPNNPTGAAATREQLTQLVEFAKKNGSIIVYDSAYAMYMSDDNPRSIFEIPGAEEVAMETASFSKYAGFTGVRLGWTVIPKKLLYSDGFPVAKDFNRIICTCFNGASNISQAGALACLTPEGLEAMHKVIGFYKENTNIIIDTFTSLGYDVYGGKNAPYVWVHFPNQSSWDVFAEILEKTHVVTTPGSGFGPGGEGFVRVSAFGHRENILEACRRFKQLYK
[5]; [10]
  Km: 38 ± 4 µM
[6]; coupled with 2-OG dehydrogenase, pH 7.5, apparent Km, pH 7.5
  Km: 2.0 mM
[6]; [10]
  Km: 1.9 ± 0.1 mM
[7]; [11]
  Km: 0.067 ± 0.002 mM
[4]; [11]
  Km: 8.3 mM and 8.7 ± 0.3 mM

B3: Arabidopsis thaliana LL-DAP transaminase At4g33680, SEQ ID NO: 7 (Arabidopsis thaliana) (protein)
chain: VNTCKCVATPQEKIEYKTKVSRNSNMSKLQAGYLFPEIARRRSAHLLKYPDAQVISLGIGDTTEPIPEVITSAMAKKAHELSTIEGYSGYGAEQGAKPLRAAIAKTFYGGLGIGDDDVFVSDGAKCDISRLQVMFGSNVTIAVQDPSYPAYVDSSVIMGQTGQFNTDVQKYGNIEYMRCTPENGFFPDLSTVGRTDIIFFCSPNNPTGAAATREQLTQLVEFAKKNGSIIVYDSAYAMYMSDDNPRSIFEIPGAEEVAMETASFSKYAGFTGVRLGWTVIPKKLLYSDGFPVAKDFNRIICTCFNGASNISQAGALACLTPEGLEAMHKVIGFYKENTNIIIDTFTSLGYDVYGGKNAPYVWVHFPNQSSWDVFAEILEKTHVVTTPGSGFGPGGEGFVRVSAFGHRENILEACRRFKQLYK
[5]
  Km: 25 µM
[6]
  Km: 1.4 mM
[7]
  Km: 0.062 mM
[4]
  Km: 1.4 mM

B4: Syntrophobacter fumaroxidans LL-DAP transaminase SfumDRAFT_0821 (Syntrophobacter fumaroxidans MPOB) (protein)
chain: MAFVKAERLKLLPPYLFQEIDRLKAELTAKGVDVINLGVGDPDLPTPDHIIARLKTAAEDPSTHQYPSYSGMNDFKVSVAGWYKRRFGVELDPLSEVLTLIGSKEGLAHFPLAVINPGDLALVPTPAYPVYHVATMFAGGESYFMPLVRENGFLPDLDSIPADVARRAKVMFINYPNNPTGATAERDFFEKVIAFAREYDVIVCHDAAYTEMAFGGYRPLSFLELPGAGEVGVEFHSLSKTYNMTGWRLGFAVGNADILAGLGQVKSNIDSGAFNAVQWAGITALEGDQGCVVEMQRIYKERLDILIEGLKRIGLHPEVPRATFYVWCPTPPGYSSKDFSSLLLREAGIVATPGSGFGAPGEGYIRMALTVDKERVREAVERMRKLSF
[8]
  Km: 0.012 mM
[9]
  Km: 0.7 mM
[7]
  Km: 0.029 mM
[4]
  Km: 0.7 mM
